Numbered stars: 1 amine (or outer) side, 2 acyl side, 3 side chain; on linkers, the order of the positions; unused ones are H or OH. Bridge positions count the residues as written; N and C are the ends. Side chains are listed from the residue outwards. Ends that are not written are not given here. * marks the point of attachment. C20 diacid = O=C(O)CCCCCCCCCCCCCCCCCCC(=O)*; γGlu = O=C(O)[C@H](CCC(=O)[*:2])N[*:1]

In the test the target is T1, human amylin receptor (Amylin 3(a) receptor: human calcitonin receptor co-expressed with RAMP-3) (human, UniProt P30988 25-474; O60896 24-148, limits assumed).
T1 construct: whole, on cells; Used as cell membranes prepared from the Amylin 3(a)/CRE-luc BHK cells (Assay V); the complex is called the human amylin receptor; also called hAmylin-R; hAmylinR
T1 sequence (looked up) 1: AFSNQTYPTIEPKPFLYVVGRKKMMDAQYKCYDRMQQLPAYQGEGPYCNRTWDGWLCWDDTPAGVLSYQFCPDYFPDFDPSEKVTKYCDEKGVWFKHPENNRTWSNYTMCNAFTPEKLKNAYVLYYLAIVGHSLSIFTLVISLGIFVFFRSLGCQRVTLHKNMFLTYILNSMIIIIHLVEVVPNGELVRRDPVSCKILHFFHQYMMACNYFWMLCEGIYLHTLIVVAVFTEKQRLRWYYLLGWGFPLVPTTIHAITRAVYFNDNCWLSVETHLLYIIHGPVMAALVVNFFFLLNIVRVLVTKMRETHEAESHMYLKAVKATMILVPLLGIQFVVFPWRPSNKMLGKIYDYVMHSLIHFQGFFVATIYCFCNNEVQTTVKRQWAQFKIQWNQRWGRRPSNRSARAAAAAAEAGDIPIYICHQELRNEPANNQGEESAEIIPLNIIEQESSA
T1 sequence (looked up) 2: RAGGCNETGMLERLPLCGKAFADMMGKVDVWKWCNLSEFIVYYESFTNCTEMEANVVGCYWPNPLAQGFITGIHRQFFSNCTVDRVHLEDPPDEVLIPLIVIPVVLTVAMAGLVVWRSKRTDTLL
As to the kind of experiment: SPA competition binding, displacement of 125I-rat amylin from membranes of BHK cells with human calcitonin receptor + RAMP-3 (Assay V). The procedure: The binding assay was performed using scintillation proximity assay (SPA) beads (RPNQ0001) from PerkinElmer and cell membranes from the Amylin 3(a)/CRE-luc cells (as described in Assay (II)) were used. Membranes were prepared in the following way; the cells were rinsed with PBS and incubated with Versene for approximately 5 min before harvesting. The cells were flushed with PBS and the cell-suspension was centrifuged for 5 min at 1000 rpm. Cells were homogenized (ultrathurrax) in a buffer containing 20 mM Na-HEPES and 10 mM EDTA (pH 7.4) and centrifuged at 20.000 rpm for 15 min. The resulting pellet was resuspended, homogenized and centrifuged (20.000 rpm, 15 min) in a buffer containing 20 mM Na-HEPES and 0.1 mM EDTA (pH 7.4, buffer 2). The resulting pellet was resuspended in buffer 2 and protein concentration was measured (BCA protein Assay, Pierce). The homogenate was kept cold during the whole procedure. The membranes were kept at −80° C. until use. The assay was performed in a 384 well Optiplate (PerkinElmer) in a total volume of 40 ul. Membranes were mixed with SPA beads. Final concentration of membranes 35 ng/μL final and SPA beads was 0.05 mg/well. Test-compounds were dissolved in DMSO and further diluted in assay buffer (50 mM Hepes, pH 7.4, 1 mM CaCl2, 5 mM MgCl₂, 0.1% OA and 0.02% Tween20). […] The final mixture was incubated with shaking at 400 rpm for 120 min at 25° C. prior to centrifugation (1500 rpm, 10 min). Samples were analyzed on TopCounter™ (Packard). The IC₅₀ was calculated using (one site binding competition analysis) GraphPad Prism5 as a measure of receptor affinity.
(In a radioligand displacement assay an active substance lowers the binding of a labelled ligand.)

B1: N^ε1-[(4S)-4-carboxy-4-(19-carboxynonadecanoylamino)butanoyl]-[Asp14,Arg17,Pro21,Pro27,Pro34,Glu35]-h-amylin (peptide)
peptide: K([γGlu-C20 diacid])CNTATCATQRLADFLRHSSPNFGAIPSSTNVGPETY-NH2
modifications: disulfide 2-7; N-terminus assumed
SMILES: CC[C@H](C)[C@H](NC(=O)[C@H](C)NC(=O)CNC(=O)[C@H](Cc1ccccc1)NC(=O)[C@H](CC(N)=O)NC(=O)[C@@H]1CCCN1C(=O)[C@H](CO)NC(=O)[C@H](CO)NC(=O)[C@H](Cc1c[nH]cn1)NC(=O)[C@H](CCCNC(=N)N)NC(=O)[C@H](CC(C)C)NC(=O)[C@H](Cc1ccccc1)NC(=O)[C@H](CC(=O)O)NC(=O)[C@H](C)NC(=O)[C@H](CC(C)C)NC(=O)[C@H](CCCNC(=N)N)NC(=O)[C@H](CCC(N)=O)NC(=O)[C@@H](NC(=O)[C@H](C)NC(=O)[C@@H]1CSSC[C@H](NC(=O)[C@@H](N)CCCCNC(=O)CC[C@H](NC(=O)CCCCCCCCCCCCCCCCCCC(=O)O)C(=O)O)C(=O)N[C@@H](CC(N)=O)C(=O)N[C@@H]([C@@H](C)O)C(=O)N[C@@H](C)C(=O)N[C@@H]([C@@H](C)O)C(=O)N1)[C@@H](C)O)C(=O)N1CCC[C@H]1C(=O)N[C@@H](CO)C(=O)N[C@@H](CO)C(=O)N[C@H](C(=O)N[C@@H](CC(N)=O)C(=O)N[C@H](C(=O)NCC(=O)N1CCC[C@H]1C(=O)N[C@@H](CCC(=O)O)C(=O)N[C@H](C(=O)N[C@@H](Cc1ccc(O)cc1)C(N)=O)[C@@H](C)O)C(C)C)[C@@H](C)O
notes: modifications are with respect to human amylin
Turning to B1, the IC50 – broadly, the point on the concentration scale where inhibition reaches its midpoint – was determined as 0.196 nM.

B2: N^ε1-[(4S)-4-carboxy-4-(19-carboxynonadecanoylamino)butanoyl]-[Glu14,Arg17,Pro21,Pro27,Arg34,Glu35]-h-amylin (peptide)
peptide: K([γGlu-C20 diacid])CNTATCATQRLAEFLRHSSPNFGAIPSSTNVGRETY-NH2
modifications: disulfide 2-7; N-terminus assumed
SMILES: CC[C@H](C)[C@H](NC(=O)[C@H](C)NC(=O)CNC(=O)[C@H](Cc1ccccc1)NC(=O)[C@H](CC(N)=O)NC(=O)[C@@H]1CCCN1C(=O)[C@H](CO)NC(=O)[C@H](CO)NC(=O)[C@H](Cc1c[nH]cn1)NC(=O)[C@H](CCCNC(=N)N)NC(=O)[C@H](CC(C)C)NC(=O)[C@H](Cc1ccccc1)NC(=O)[C@H](CCC(=O)O)NC(=O)[C@H](C)NC(=O)[C@H](CC(C)C)NC(=O)[C@H](CCCNC(=N)N)NC(=O)[C@H](CCC(N)=O)NC(=O)[C@@H](NC(=O)[C@H](C)NC(=O)[C@@H]1CSSC[C@H](NC(=O)[C@@H](N)CCCCNC(=O)CC[C@H](NC(=O)CCCCCCCCCCCCCCCCCCC(=O)O)C(=O)O)C(=O)N[C@@H](CC(N)=O)C(=O)N[C@@H]([C@@H](C)O)C(=O)N[C@@H](C)C(=O)N[C@@H]([C@@H](C)O)C(=O)N1)[C@@H](C)O)C(=O)N1CCC[C@H]1C(=O)N[C@@H](CO)C(=O)N[C@@H](CO)C(=O)N[C@H](C(=O)N[C@@H](CC(N)=O)C(=O)N[C@H](C(=O)NCC(=O)N[C@@H](CCCNC(=N)N)C(=O)N[C@@H](CCC(=O)O)C(=O)N[C@H](C(=O)N[C@@H](Cc1ccc(O)cc1)C(N)=O)[C@@H](C)O)C(C)C)[C@@H](C)O
notes: as for B1
With B2, the half-maximal inhibitory concentration (IC50) was found to be 0.232 nM.

B3: N^ε1-[(4S)-4-carboxy-4-(19-carboxynonadecanoylamino)butanoyl]-[Glu14,Arg17,Pro21,Pro27,His34,Glu35]-h-amylin (peptide)
peptide: K([γGlu-C20 diacid])CNTATCATQRLAEFLRHSSPNFGAIPSSTNVGHETY-NH2
modifications: disulfide 2-7; N-terminus assumed
SMILES: CC[C@H](C)[C@H](NC(=O)[C@H](C)NC(=O)CNC(=O)[C@H](Cc1ccccc1)NC(=O)[C@H](CC(N)=O)NC(=O)[C@@H]1CCCN1C(=O)[C@H](CO)NC(=O)[C@H](CO)NC(=O)[C@H](Cc1c[nH]cn1)NC(=O)[C@H](CCCNC(=N)N)NC(=O)[C@H](CC(C)C)NC(=O)[C@H](Cc1ccccc1)NC(=O)[C@H](CCC(=O)O)NC(=O)[C@H](C)NC(=O)[C@H](CC(C)C)NC(=O)[C@H](CCCNC(=N)N)NC(=O)[C@H](CCC(N)=O)NC(=O)[C@@H](NC(=O)[C@H](C)NC(=O)[C@@H]1CSSC[C@H](NC(=O)[C@@H](N)CCCCNC(=O)CC[C@H](NC(=O)CCCCCCCCCCCCCCCCCCC(=O)O)C(=O)O)C(=O)N[C@@H](CC(N)=O)C(=O)N[C@@H]([C@@H](C)O)C(=O)N[C@@H](C)C(=O)N[C@@H]([C@@H](C)O)C(=O)N1)[C@@H](C)O)C(=O)N1CCC[C@H]1C(=O)N[C@@H](CO)C(=O)N[C@@H](CO)C(=O)N[C@H](C(=O)N[C@@H](CC(N)=O)C(=O)N[C@H](C(=O)NCC(=O)N[C@@H](Cc1c[nH]cn1)C(=O)N[C@@H](CCC(=O)O)C(=O)N[C@H](C(=O)N[C@@H](Cc1ccc(O)cc1)C(N)=O)[C@@H](C)O)C(C)C)[C@@H](C)O
notes: modifications are with respect to human amylin; also called compound 107
For B3, the IC50 was determined as 0.387 nM.

B4: N^ε1-[(4S)-4-carboxy-4-(19-carboxynonadecanoylamino)butanoyl]-[Glu14,Arg17,Pro21,Pro27,Pro34,Arg35]-h-amylin (peptide)
peptide: K([γGlu-C20 diacid])CNTATCATQRLAEFLRHSSPNFGAIPSSTNVGPRTY-NH2
modifications: disulfide 2-7; N-terminus assumed
SMILES: CC[C@H](C)[C@H](NC(=O)[C@H](C)NC(=O)CNC(=O)[C@H](Cc1ccccc1)NC(=O)[C@H](CC(N)=O)NC(=O)[C@@H]1CCCN1C(=O)[C@H](CO)NC(=O)[C@H](CO)NC(=O)[C@H](Cc1c[nH]cn1)NC(=O)[C@H](CCCNC(=N)N)NC(=O)[C@H](CC(C)C)NC(=O)[C@H](Cc1ccccc1)NC(=O)[C@H](CCC(=O)O)NC(=O)[C@H](C)NC(=O)[C@H](CC(C)C)NC(=O)[C@H](CCCNC(=N)N)NC(=O)[C@H](CCC(N)=O)NC(=O)[C@@H](NC(=O)[C@H](C)NC(=O)[C@@H]1CSSC[C@H](NC(=O)[C@@H](N)CCCCNC(=O)CC[C@H](NC(=O)CCCCCCCCCCCCCCCCCCC(=O)O)C(=O)O)C(=O)N[C@@H](CC(N)=O)C(=O)N[C@@H]([C@@H](C)O)C(=O)N[C@@H](C)C(=O)N[C@@H]([C@@H](C)O)C(=O)N1)[C@@H](C)O)C(=O)N1CCC[C@H]1C(=O)N[C@@H](CO)C(=O)N[C@@H](CO)C(=O)N[C@H](C(=O)N[C@@H](CC(N)=O)C(=O)N[C@H](C(=O)NCC(=O)N1CCC[C@H]1C(=O)N[C@@H](CCCNC(=N)N)C(=O)N[C@H](C(=O)N[C@@H](Cc1ccc(O)cc1)C(N)=O)[C@@H](C)O)C(C)C)[C@@H](C)O
notes: as for B1
B4: the IC50 was found to be 0.163 nM.

B5: N^ε1-[(4S)-4-carboxy-4-(19-carboxynonadecanoylamino)butanoyl]-[Glu14,Arg17,Pro21,Pro27,His35]-h-amylin (peptide)
peptide: K([γGlu-C20 diacid])CNTATCATQRLAEFLRHSSPNFGAIPSSTNVGSHTY-NH2
modifications: disulfide 2-7; N-terminus assumed
SMILES: CC[C@H](C)[C@H](NC(=O)[C@H](C)NC(=O)CNC(=O)[C@H](Cc1ccccc1)NC(=O)[C@H](CC(N)=O)NC(=O)[C@@H]1CCCN1C(=O)[C@H](CO)NC(=O)[C@H](CO)NC(=O)[C@H](Cc1c[nH]cn1)NC(=O)[C@H](CCCNC(=N)N)NC(=O)[C@H](CC(C)C)NC(=O)[C@H](Cc1ccccc1)NC(=O)[C@H](CCC(=O)O)NC(=O)[C@H](C)NC(=O)[C@H](CC(C)C)NC(=O)[C@H](CCCNC(=N)N)NC(=O)[C@H](CCC(N)=O)NC(=O)[C@@H](NC(=O)[C@H](C)NC(=O)[C@@H]1CSSC[C@H](NC(=O)[C@@H](N)CCCCNC(=O)CC[C@H](NC(=O)CCCCCCCCCCCCCCCCCCC(=O)O)C(=O)O)C(=O)N[C@@H](CC(N)=O)C(=O)N[C@@H]([C@@H](C)O)C(=O)N[C@@H](C)C(=O)N[C@@H]([C@@H](C)O)C(=O)N1)[C@@H](C)O)C(=O)N1CCC[C@H]1C(=O)N[C@@H](CO)C(=O)N[C@@H](CO)C(=O)N[C@H](C(=O)N[C@@H](CC(N)=O)C(=O)N[C@H](C(=O)NCC(=O)N[C@@H](CO)C(=O)N[C@@H](Cc1c[nH]cn1)C(=O)N[C@H](C(=O)N[C@@H](Cc1ccc(O)cc1)C(N)=O)[C@@H](C)O)C(C)C)[C@@H](C)O
notes: as for B1
As to B5, the IC50 was determined as 0.992 nM.

B6: N^ε1-[(4S)-4-carboxy-4-(19-carboxynonadecanoylamino)butanoyl]-[Glu14,Arg17,Pro21,Pro27,Pro34,His35]-h-amylin (peptide)
peptide: K([γGlu-C20 diacid])CNTATCATQRLAEFLRHSSPNFGAIPSSTNVGPHTY-NH2
modifications: disulfide 2-7
notes: as for B1
B6: the IC50 stood at 0.179 nM.

These data come from patent US20140087995A1 (published 2014).
